Molecular target: CCR5 on mouse periosteal skeletal stem cells / mouse cells in vivo (mouse) (UniProt P51682)
Assay: cell-based or functional assay

Sequence of UniProt P51682 (P51682 whole entry): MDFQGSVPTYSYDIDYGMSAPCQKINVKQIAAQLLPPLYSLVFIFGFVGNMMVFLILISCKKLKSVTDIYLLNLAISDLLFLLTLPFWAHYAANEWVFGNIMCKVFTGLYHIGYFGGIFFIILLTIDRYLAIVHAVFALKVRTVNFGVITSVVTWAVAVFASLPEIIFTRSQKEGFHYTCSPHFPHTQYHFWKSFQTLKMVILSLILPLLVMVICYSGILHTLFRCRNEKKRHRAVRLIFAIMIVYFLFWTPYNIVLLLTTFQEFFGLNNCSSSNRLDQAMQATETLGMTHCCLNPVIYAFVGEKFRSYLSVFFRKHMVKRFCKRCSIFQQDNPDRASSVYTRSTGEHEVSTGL

CCL5 (ligand) was tested. Which average in vivo migration speed of Mx1+aSMA+ P-SSCs under CCL5 administration did it give?
Its average in vivo migration speed of Mx1+aSMA+ P-SSCs under CCL5 administration is 57 µm/h.

Source: US20220096600A1
